Earlier results as cited in PMC5429092.
pKd: −log10 of the molar value.

Biological target: PP1 (Homo sapiens) (UniProt P62136)
Experiment: ITC

Chain of UniProt P62136 (P62136 2-330): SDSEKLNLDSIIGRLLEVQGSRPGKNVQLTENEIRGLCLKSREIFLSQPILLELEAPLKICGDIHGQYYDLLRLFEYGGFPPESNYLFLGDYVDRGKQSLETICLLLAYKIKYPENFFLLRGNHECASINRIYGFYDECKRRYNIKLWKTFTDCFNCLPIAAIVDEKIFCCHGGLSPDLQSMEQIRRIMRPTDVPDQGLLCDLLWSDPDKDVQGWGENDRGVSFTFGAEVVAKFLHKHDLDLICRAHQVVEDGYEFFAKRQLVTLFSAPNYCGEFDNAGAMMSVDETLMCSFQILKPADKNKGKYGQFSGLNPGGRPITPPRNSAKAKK

pKd: 7.21
Substance: PPP1R15A (from UniProt O75807)
